Reference: patent US20230060040A1, “USE OF TRANSFERRIN, TRANSFERRIN RECEPTOR AND ANTIBODY THEREOF IN PREPARATION OF ANTI-SARS-CoV-2 DRUG” (KUNMING INSTITUTE OF ZOOLOGY, CHINESE ACADEMY OF SCIENCES, priority 2020, published 2023)

Biological target: transferrin receptor on the membrane surface of Vero E6 cells (African green monkey)
Experiment: cell-based or functional assay

transferrin (Sigma, catalog number T4382) (from UniProt P02787 20-698) (ligand)
EC50 of inhibition of SARS-CoV-2 infection of Vero E6 cells, calculated by CPE: 125 nM
